Data: publication PMC10713628, “UniKP: a unified framework for the prediction of enzyme kinetic parameters” (Nature Communications, 2023)

B1: RgTAL (Rhodotorula glutinis) (protein)
chain: MAPRPTSQSQARTCPTTQVTQVDIVEKMLAAPTDSTLELDGYSLNLGDVVSAARKGRPVRVKDSDEIRSKIDKSVEFLRSQLSMSVYGVTTGFGGSADTRTEDAISLQKALLEHQLCGVLPSSFDSFRLGRGLENSLPLEVVRGAMTIRVNSLTRGHSAVRLVVLEALTNFLNHGITPIVPLRGTISASGDLSPLSYIAAAISGHPDSKVHVVHEGKEKILYAREAMALFNLEPVVLGPKEGLGLVNGTAVSASMATLALHDAHMLSLLSQSLTAMTVEAMVGHAGSFHPFLHDVTRPHPTQIEVAGNIRKLLEGSRFAVHHEEEVKVKDDEGILRQDRYPLRTSPQWLGPLVSDLIHAHAVLTIEAGQSTTDNPLIDVENKTSHHGGNFQAAAVANTMEKTRLGLAQIGKLNFTQLTEMLNAGMNRGLPSCLAAEDPSLSYHCKGLDIAAAAYTSELGHLANPVTTHVQPAEMANQAVNSLALISARRTTESNDVLSLLLATHLYCVLQAIDLRAIEFEFKKQFGPAIVSLIDQHFGSAMTGSNLRDELVEKVNKTLAKRLEQTNSYDLVPRWHDAFSFAAGTVVEVLSSTSLSLAAVNAWKVAAAESAISLTRQVRETFWSAASTSSPALSYLSPRTQILYAFVREELGVKARRGDVFLGKQEVTIGSNVSKIYEAIKSGRINNVLLKMLA
notes: full length 693 residues; pET32a, E. coli BL21(DE3); purified; tags not described
B2: AsTAL (Armillaria solidipes) (protein)
chain: MPASVFDDINSETKSGKGVGGVSGAHRTPSLLAKFLDSHKELKSYRNGRPVKVDGHTLSIAAVTAAARYNATVDLDGSPQVKAGVMKSRAVIADKVDNGTSVYGVSTGFGGSADTRTDQPLKLGQALLQHQHAGVLPSSDRTLDVLPLLDPMASTSMPESWVRGAMLVRMNSLIRGHSGVRWELLEKINELLRANITPVVPLRSSISASGDLSPLSYVAGTLVANPSIRVFDGPKKFGARKMVSSKDALASHGIQPISLVSKEGLGILNGTAFSASVASLALNDAVHLALLAQICTALGTEALSGTLGNYAPFIHATARPHPGQVESARHIWNLLRGSKLATTHEEEVSINQDKYSLRQDRYPLRTAPQFLGPQIEDILSALSTVIQECNSTTDNPLIDGETGEVHHGGNFQAMAVSNAMEKTRLALHHIGRLLFAQSTELVNPVMNHGLPPSLAASDPSLNYHGKGVDIATAAYVAELGYLAGPVTTHIQSAEMHNQAVNSLALISARATVNALEVLTMLMSSYLYLLCQAVDLRALRREFNTGLKSILSEELSAILGSQLSSQEIDISVSSMWGVVQTTLDKTTTMDAVDQMREVATACIPALIETVSRTNAINNALSSISQFRTNVASKATKLMAELRSSYLLGGRGPAPAGPYLGKTRAVYEYIRITLGVKMHGIENLGSFPNGLGVDDVTIGQNITAIFEAIRDGNFQDAVADLFEVLPHVKL
notes: codon-optimised synthetic gene in pET32a, E. coli BL21(DE3); purified; tags not described

Assays:
[1] = tested on: T1, N[C@@H](Cc1ccc(O)cc1)C(=O)O; assay: purified protein; assay type: biochemical, Rhodotorula glutinis; settings: Tris-HCl, 40 °C, 30 min, pH 9.5 in table note (buffer pH 8.5 in methods)
T1 construct: full length 693 residues; pET32a, E. coli BL21(DE3); purified; tags not described

[2] = tested on: N[C@@H](Cc1ccc(O)cc1)C(=O)O; assay: purified protein; settings: Tris-HCl, 40 °C, 30 min, pH 9.5 in table note (buffer pH 8.5 in methods)
LeTAL = tested on: T2, LeTAL; assay: coumaric acid formation at […] nm; assay type: biochemical, Lentinula edodes; settings: Tris-HCl, 40 °C, 30 min; pH 9.5 in table note (buffer pH 8.5 in methods)
T2 construct: gene TAL; codon-optimised synthetic gene in pET32a, E. coli BL21(DE3); purified; tags not described

TALclu = tested on: T3, TALclu; assay: coumaric acid formation at […] nm; assay type: biochemical, Chryseobacterium luteum; settings: Tris-HCl, 40 °C, 30 min; pH 9.5 in table note (buffer pH 8.5 in methods)
T3 construct: gene TAL; codon-optimised synthetic gene in pET32a, E. coli BL21(DE3) per general method; purified; tags not described

PpTAL = tested on: T4, PpTAL; assay: coumaric acid formation at […] nm; assay type: biochemical, Pleurotus pulmonarius; settings: Tris-HCl, 40 °C, 30 min; pH 9.5 in table note (buffer pH 8.5 in methods)
T4 construct: gene TAL; codon-optimised synthetic gene in pET32a, E. coli BL21(DE3); purified; tags not described

TrTAL = tested on: T5, TrTAL; assay: coumaric acid formation at […] nm; assay type: biochemical, Tephrocybe rancida; settings: Tris-HCl, 40 °C, 30 min; pH 9.5 in table note (buffer pH 8.5 in methods)
T5 construct: gene TAL; codon-optimised synthetic gene in pET32a, E. coli BL21(DE3); purified; tags not described

purified protein [3] = substrate: N[C@@H](Cc1ccc(O)cc1)C(=O)O; assay: purified protein; assay type: biochemical, Rhodotorula glutinis; settings: Tris-HCl, 40 °C, 30 min, pH 9.5 in table note (buffer pH 8.5 in methods)
purified protein [4] = substrate: N[C@@H](Cc1ccc(O)cc1)C(=O)O; assay: purified protein; assay type: biochemical, Armillaria solidipes; settings: Tris-HCl, 40 °C, 30 min, pH 9.5 in table note (buffer pH 8.5 in methods)

Row | Molecule | Km [1] [µM] | kcat [1] [s⁻¹] | kcat/Km [1] [M⁻¹ s⁻¹] | also measured
1 | RgTAL (Rhodotorula glutinis; E366W) | 850 | 31 | 36500 | 
2 | IsTAL (Ilyonectria sp. MPI-CAGE-AT-0026) |  |  |  | Km [2]: 570 µM; kcat [2]: 120 s⁻¹; kcat/Km [2]: 210000 M⁻¹ s⁻¹
3 | RgTAL (Rhodotorula glutinis; Q337C) | 6480 | 96.8 | 14900 | 
4 | PcTAL (Puccinia coronata f. sp. avenae) |  |  |  | Km [2]: 170 µM; kcat [2]: 66.6 s⁻¹; kcat/Km [2]: 392000 M⁻¹ s⁻¹
5 | RgTAL (Rhodotorula glutinis; Q337D) | 850 | 34.8 | 40900 | 
6 | RgTAL (Rhodotorula glutinis; E587V) | 330 | 163 | 494000 | 
7 | RgTAL (Rhodotorula glutinis; K603P) | 1150 | 52.6 | 45700 | 
8 | RgTAL (Rhodotorula glutinis; I668S) | 3850 | 53.6 | 13900 | 
9 | AaTAL (Aspergillus arachidicola) |  |  |  | Km [2]: 30 µM; kcat [2]: 25.2 s⁻¹; kcat/Km [2]: 841000 M⁻¹ s⁻¹
10 | RgTAL (Rhodotorula glutinis; E366H) | 480 | 40.3 | 84000 | 
11 | RgTAL (Rhodotorula glutinis; R489T) | 710 | 817 | 1.15e+06 | 
12 | RgTAL (Rhodotorula glutinis; Q10Y) | 820 | 884 | 1.08e+06 | 
13 | N[C@@H](Cc1ccc(O)cc1)C(=O)O [L-tyrosine] |  |  |  | Km (LeTAL): 70 µM; Km (TALclu): 50 µM; Km (PpTAL): 40 µM; Km (TrTAL): 40 µM
14 | B1 |  |  |  | Km (purified protein [3]): 360 µM; kcat (purified protein [3]): 118 s⁻¹; kcat/Km (purified protein [3]): 327000 M⁻¹ s⁻¹
15 | B2 |  |  |  | Km (purified protein [4]): 540 µM; kcat (purified protein [4]): 449 s⁻¹; kcat/Km (purified protein [4]): 831000 M⁻¹ s⁻¹
